Reference: PMC6080600 (Nature structural & molecular biology, 2018)

Target: the molecule itself
Experiment: cryo-EM structure

B1: zebrafish RAG1 (recombination-activating gene 1 protein), residues 271-1031, with N-terminal 6xHis-MBP tag (domain or fragment, UniProt O13033 271-1031, looked up)
chain: RCQRDHLSTKLIPTEVPADLIRAVTCQVCDHLLSDPVQSPCRHLFCRLCIIRYTHALGPNCPTCNQHLNPSHLIKPAKFFLATLSSLPLLCPSEECSDWVRLDSFREHCLNHYREKESQEEQTPSEQNLDGYLPVNKGGRPRQHLLSLTRRAQKHRLRDLKNQVKTFAEKEEGGDVKSVCLTLFLLALRAGNEHKQADELEAMMQGRGFGLHPAVCLAIRVNTFLSCSQYHKMYRTVKATSGRQIFQPLHTLRNAEKELLPGFHQFEWQPALKNVSTSWDVGIIDGLSGWTVSVDDVPADTISRRFRYDVALVSALKDLEEDIMEGLRERALDDSMCTSGFTVVVKESCDGMGDVSEKHGSGPAVPEKAVRFSFTIMSISIRLEGEDDGITIFQEQKPNSELSCRPLCLMFVDESDHETLTAILGPVVAERKAMMESRLIISVGGLLRSFRFFFRGTGYDEKMVREMEGLEASGSTYICTLCDSTRAEASQNMVLHSITRSHDENLERYEIWRKNPFSESADELRDRVKGVSAKPFMETQPTLDALHCDIGNATEFYKIFQDEIGEVYQKPNPSREERRRWRSTLDKQLRKKMKLKPVMRMNGNYARRLMTREAVEAVCELVPSEERREALLKLMDLYLQMKPVWRSTCPSRDCPDQLCQYSYNSQQFADLLSSMFKYRYDGKITNYLHKTLAHVPEIVERDGSIGAWASEGNESGNKLFRRFRKMNARQSKTFELEDILKHHWLYTSKYLQKFMEAHKNS
For B1, the “stoichiometry N” value was 2.
